# Experiment: soluble on expression in E. coli; label from the status in PepcDB or PDB records
row,Sequence,soluble on expression in E. coli
1,MAHHHHHHMDSEPFAFDGEGSRARQSEYVDMTLVHLGMKLRDMGIAFEDMELATVPTQFAEQLLSYIEAFEERESAIRAATTEHRAQLEQEQKRLESLQEATEKARGEVAILSERISSALSAFRGEEKLEAQHRRERQRDVQDIVRQIEKKELELRRETMERDRLSKMLKKVKK,soluble
2,MSLANLFESHSPAGPLANRMRPQSLDEIVGQRHLIGESTLLRRAILADRLGTVIFYGPPGTGKTTLARVISSYTKSAFEQLNAVTAKLDQLREVLKAAESRLQFDQQKTILFLDEIHRFNKMQQDALLPALEAGTITLIGATTENPSFEVNAALLSRATVFRFETPTTEDLRVVLHRTLHDTERGLGKYPITVTEEAVDHYVKLSDGDYRALLNALELAVLTTPEIDGEITIDLSVAEESIQQKALKYDKDGDRHYDVISAFIKSIRGSDPDAALYWLAVMIEAGESPRFIVRRLYVHAAEDIGMSDPQALLIVDACARACEYIGFPEARIPLAETVLYLATAPKSNTVITAIDQALELVRRSDGGPVPPHLRDAHHAGAAALGNGVEYQYPHQFPHAYVKQNYWPENLARTKPVFYKPSPRGFEKQLQARLDFWKKQEGHHHHHH,soluble
3,MGSDKIHHHHHHMNITIATLGELLVEFLAKKENQGFSSPGEFWGPYPSGAPAIFADQVAKLGFRSLLFSCVGNDAFGVMNITRLSRDGVNVQGISVLPNATTGSAFVSYRSQAQRDFIFNMPDSACGLLSADHLDETLLRQYRHFHIMGSSLFSFRLIDAVRKAISIVKENGGTISFDPNIRKEMLKIREMSQAFEYILDYTDFFLPSDGELDYFGLSKSRDEEKIVARLHKRGIAHVIIKRGARGASYYSKDEQHHVAGYPVKVVDPTGAGDCFGATFVSLFLAGYSVPDALAHANAAGSLAISARGPMEGTSTLAQIKELMRQQN,not soluble
4,MGSDKIHHHHHHMSSKVAKELADFLLQIEQRSQFHAGYPYNLSCDYSAIGKFFNHLLNNAGDPYIEPDFGLHSRKFEQEVLSFFAHLYKIPENQFWGYVTAGGTEGNLYGIFLAREIYPNGILYSSQDSHYSIPKAAKLFRIQHNVVNSQINGEMNYDHFEQLLSENRRYPAIINLNIGTTVKGAIDNLDKVLEILERNQIKDYYIHCDAALSGLILPFLDGAPQVNFQKPIDSVAISAKFIGSPLPCGVVLTKKKWVEKVETEIEYIGSKDTTILGSRNGHTPLILWYAVQTRGYDGLAKEAKTCIHNAQYLFQQLQIREYPCMLNNFSNTVVFQKPSQRLIKKWQLAVFENWAHMIVMQNIVREKIDIFINELLLEQGLLNNAKNFQLQPVLQH,not soluble
5,MGSDKIHHHHHHMDKKSSVSPLPTKALSDDKNSPITVWHIGGEDIRLRIPLLLKLREKGFNVGAVGSEDGNAFADNQIPYFRYTLERGINPWADIYTRSQLSALFRQHQPDIVHSFDTKPAMIAPIVAMKTGIPGRVRTITGMGYVFSSTSTLALALRPIYRHLQRQAAIATGITIFQNPDDREYFCKHKMVLDGRDDLVLGSGIDVEGLMKNSAEPEKLAATRRELGLEGQLVVTMISRLVISKGVREYLQVASIVCQQMKNVTFLLIGSVSSEGGQAIPIQEIHQQAGVVRYLGPRNDIPTLLNLSDVFVLPSYYREGVPRVLLEAATMELPLITTDMPGCKEVVKDGWNGLLVPPRDTKALATAILKLLNSPEQRNLMGKRSRVHVQTNFSLNQVADAYADIYNRVLKLPKTLK,not soluble
6,MGSDKIHHHHHHMKIVHVCETLKGGIESYLAEIIPYQVGLYGAENIHIIVPRDGDEGRSEFHEAVVWEFRRQGRSLSTMLNLCLAILKIVRTQAPDVIHLHSSFAGAIGRVVLMALRKETKVIYCPHGWSYLRQGAEHTNWLWKKIETMLALACNRIVCISEHEYNAALDAGLPKQKLELIVSGISDLVPDAPRNQAVSSEKRAIRLLFVGRLDYQKGVDLLFNALRLAARKDIELTVVGEAVVNSGWWAQVRGSCPENVQIIGWQERDALQIFYDLADALVVPSRWEGFGLVAVEALRAGTPVICNVAGALPDIVEHGISGYHLNFENEEKAVAFFSDLKLENLTLLRRAARERYTSVFKSQAMNEKMLQMYQAVMPHAETVGAAGFME,not soluble
7,SLLSIIPISAGIPLTETEPKQKWLEEWSKQLFVKVSIDSEYGWGEVLPAAFNSPALYADIVKRLEPSLNGMEISEPGIIWEKLRKLTFSGGYGPVIGAISGVDIALWDLKAKLSKLYLGDIFGKNEQKIARYASLSRYANYEAVIRASKNIVESGFKAIKLHQTKDDTLESVKRFREEIGYGVDLMVDLNCAMNIDEAIKFANSVQRYELKWVEEPIWPPDDLASLKKINDIVPVAAGENFFDFFKFEDAVHLEALTYYQPDVTKVGGLTPTLKILDLLKKNHEQVAFHNRPHNGWIGIFASIAAARMNGVDALIETPPNGVPSQYFRYNAMITSEVIAPNGVGLSIEPIEPLPQPKDEKILIFHD,soluble
8,MADNLSDTLKKLKITAVDKTEDSLEGCLDCLLQALAQNNTETSEKIQASGILQLFATLLTPQSSCKAKVANIIAEVAKNEFMRIPCVDAGLISPLVQLLNSKDQEVLLQTGRALGNICYDSHEGRSAVDQAGGAQIVIDHLRSLCSITDPANEKLLTVFCGMLMNYSNENDSLQAQLINMGVIPTLVKLLGIHCQNAALTEMCLVAFGNLAELESSKEQFASTNIAEELVKLFKKQIEHDKREMIFEVLAPLAENDAIKLQLVEAGLVECLLEIVQQKVDSDKEDDITELKTGSDLMVLLLLGDESMQKLFEGGKGSVFQRVLSWIPSNNHQLQLAGALAIANFARNDANCIHMVDNGIVEKLMDLLDRHVEDGNVTVQHAALSALRNLAIPVINKAKMLSAGVTEAVLKFLKSEMPPVQFKLLGTLRMLIDAQEAAEQLGKNVKLVERLVEWCEAKDHAGVMGESNRLLSALIRHSKSKDVIKTIVQSGGIKHLVTMATSEHVIMQNEALVALALIAALELGTAEKDLESAKLVQILHRLLADERSAPEIKYNSMVLICALMGSECLHKEVQDLAFLDVVSKLRSHENKSVAQQASLTEQRLTVES,not soluble
9,MGSDKIHHHHHHMEKTILVHAAACAPAESCGYVVNTSAGERYFPCQNLSAEPTMYFRMAPEDYLRAQAAGDVVALVHSHPDGLPFLSDVDRRLQVQSGLPWWLVCHDRIYTFRCVPFLTGRVFEHGVTDCYTLFRDAYHLAGIEMPDFSRGEDWWKNGENLYLDNLEATGFYRVSGEEAQSGDILICCFGSSVANHAAIYCGNGELLHHIPDQLSKRERYTDKWQRRTHSIWRHRAWHESAFTGIYNDLAAALASV,not soluble
10,MSLLDRLNDDMKQAMKNKEKEKLSVLRMLKAALQNEAIKLGKSPLSEDEELTVLSRELKQRKDSLQEFENAGRSDLVEKVKTEIEIVQSYMPTPLTEDELRELIEQTIKEVGASSKADMGKVMGAIMPKVKGRADGSLVNKLVQQQLS,soluble
11,MSQAELPVLRVAYMPLIDCAPLVAASRLGLDHAYGLQLQLHRQASWAGVRDRLLAGEVDAAHTLASLVYAIDLGVGGPQCPMALLMTLNHNGQAITLAPALAQGVAAGQPLPQVLAEAGRRVVFAQTFPTGTHALWLYYWLAACGVDPMRDVDVVSIPPPQMPEALASGLVDGYCSGEPWAAVAEAQGSGQRVIRSGELWPEHPEKVLACRREFAALQPELSERLTACVLEACRWLDAAPANRAQCAQWLADPDYIGVPAAHLAACLDADAATVSVDPSALAFHRGGAVNMPWLSDGEWFLEQFQRWGWHTLQAADLARLHDIHRLDNYRRAAQRAGVTAPDADRRINRLFDTPAALEHHHHHH,not soluble
12,MSLKRSSICYRASKPLIASLVMSVWNAVHLSRRFAALPQAFYTPVHPQPLQNVRWGMWNSRLAQQFGLPEAPNDELLLSLSGQQLPADFSPVAMKYAGHQFGVYNPDLGDGRGLLLAEMATKQGEVFDIHLKGAGLTPYSRMGDGRAVLRSSLREYLCSEAMAGLGIATTRALALMSSETPVYREREERGALLVRLAHTHVRFGHFEHFFYTDQHANLKLLADKVIEWHFPDCVQTSKPYAAWFSQVVERTALMIAQWQAYGFNHGVMNTDNMSILGETFDYGPFAFLDDYDPNFICNHSDYQGRYAFDQQPRIGLWNLSALAHALSPLIDKDDLEAALGSYSERLNLHFSRLMRAKLGLATQQEGDGELFADFFALLANNHTDYTRFLRELSCLDRQGNEAVIDLVLDREAAKTWLTRYLERAARELGQEGRPISTRERCQAMRQVNPKYILRNYLAQQAIEFAERGDFEEMQRLATVLASPYAEHPEFERYAKLPPEWGKKLEISCSSEGGSHHHHHH,soluble

# From the DeepSol protein solubility set
